The source of these data is patent publication US20090298765A1 (Takeda / Millennium, published 2009).

B1: des(1-3)-Indole-3-acetyl-[AzaGly7,Arg(Me)9]MS10 (peptide)
peptide: {indole‑3‑acetyl}-NSF[azaGly]L[Arg(Me)]F-NH2
SMILES: CNC(=N)NCCC[C@H](NC(=O)[C@H](CC(C)C)NC(=O)NNC(=O)[C@H](Cc1ccccc1)NC(=O)[C@H](CO)NC(=O)[C@H](CC(N)=O)NC(=O)Cc1c[nH]c2ccccc12)C(=O)N[C@@H](Cc1ccccc1)C(N)=O
notes: also called Compound No. 266
B2: [D-Tyr1,D-Asn2,Thr5,AzaGly7,Arg(Me)9]MS10 (peptide)
peptide: [dY][dN]WNTF[azaGly]L[Arg(Me)]F-NH2
modifications: N-terminus assumed
SMILES: CNC(=N)NCCC[C@H](NC(=O)[C@H](CC(C)C)NC(=O)NNC(=O)[C@H](Cc1ccccc1)NC(=O)[C@@H](NC(=O)[C@H](CC(N)=O)NC(=O)[C@H](Cc1c[nH]c2ccccc12)NC(=O)[C@@H](CC(N)=O)NC(=O)[C@H](N)Cc1ccc(O)cc1)[C@@H](C)O)C(=O)N[C@@H](Cc1ccccc1)C(N)=O
notes: also called Compound No. 298
B3: [D-Tyr1,Thr5,AzaGly7,Arg(Me)9]MS10 (peptide)
peptide: [dY]NWNTF[azaGly]L[Arg(Me)]F-NH2
modifications: N-terminus assumed
SMILES: CNC(=N)NCCC[C@H](NC(=O)[C@H](CC(C)C)NC(=O)NNC(=O)[C@H](Cc1ccccc1)NC(=O)[C@@H](NC(=O)[C@H](CC(N)=O)NC(=O)[C@H](Cc1c[nH]c2ccccc12)NC(=O)[C@H](CC(N)=O)NC(=O)[C@H](N)Cc1ccc(O)cc1)[C@@H](C)O)C(=O)N[C@@H](Cc1ccccc1)C(N)=O
notes: also called Compound No. 297
B4: des(1-5)-GuAmb-[Arg(Me)9]MS10 (peptide)
peptide: GuAmb-FGL[Arg(Me)]F-NH2
SMILES: CNC(=N)NCCC[C@H](NC(=O)[C@H](CC(C)C)NC(=O)CNC(=O)[C@H](Cc1ccccc1)NC(=O)c1ccc(CNC(=N)N)cc1)C(=O)N[C@@H](Cc1ccccc1)C(N)=O
B5: des(1-3)-2-(Indol-3-yl)ethylcarbamoyl-[AzaGly7,Arg(Me)9]MS10 (peptide)
peptide: {2‑(indol-3-yl)ethylcarbamoyl}-NSF[azaGly]L[Arg(Me)]F-NH2
SMILES: CNC(=N)NCCC[C@H](NC(=O)[C@H](CC(C)C)NC(=O)NNC(=O)[C@H](Cc1ccccc1)NC(=O)[C@H](CO)NC(=O)[C@H](CC(N)=O)NC(=O)NCCc1c[nH]c2ccccc12)C(=O)N[C@@H](Cc1ccccc1)C(N)=O
notes: also called Compound No. 279
B6: des(1-3)-Diphenylacetyl-[AzaGly7,Arg(Me)9]MS10 (peptide)
peptide: Diphenylacetyl-NSF[azaGly]L[Arg(Me)]F-NH2
SMILES: CNC(=N)NCCC[C@H](NC(=O)[C@H](CC(C)C)NC(=O)NNC(=O)[C@H](Cc1ccccc1)NC(=O)[C@H](CO)NC(=O)[C@H](CC(N)=O)NC(=O)C(c1ccccc1)c1ccccc1)C(=O)N[C@@H](Cc1ccccc1)C(N)=O
notes: also called Compound No. 268

Non-standard residues stand in square brackets, D forms with d. No end group written: not given here. *: point of attachment. GuAmb = 4-guanidinomethylbenzoyl, N=C(N)NCc1ccc(C(=O)*)cc1; 2‑(indol-3-yl)ethylcarbamoyl = O=C(NCCc1c[nH]c2ccccc12)*; Propanoyl(3-indol-3-yl) = O=C(CCc1c[nH]c2ccccc12)*; Diphenylacetyl = O=C(C(c1ccccc1)c1ccccc1)*; indole‑3‑acetyl = O=C(Cc1c[nH]c2ccccc12)*; Arg(Me) = CNC(=N)NCCC[C@H](N)C(=O)O; azaGly = NNC(=O)O

In one assay the target is T1, human OT7T175 (metastin receptor) (human, UniProt Q969F8 1-398). Kind of assay: cell-based or functional assay.
T1 sequence (Q969F8 whole entry L364H): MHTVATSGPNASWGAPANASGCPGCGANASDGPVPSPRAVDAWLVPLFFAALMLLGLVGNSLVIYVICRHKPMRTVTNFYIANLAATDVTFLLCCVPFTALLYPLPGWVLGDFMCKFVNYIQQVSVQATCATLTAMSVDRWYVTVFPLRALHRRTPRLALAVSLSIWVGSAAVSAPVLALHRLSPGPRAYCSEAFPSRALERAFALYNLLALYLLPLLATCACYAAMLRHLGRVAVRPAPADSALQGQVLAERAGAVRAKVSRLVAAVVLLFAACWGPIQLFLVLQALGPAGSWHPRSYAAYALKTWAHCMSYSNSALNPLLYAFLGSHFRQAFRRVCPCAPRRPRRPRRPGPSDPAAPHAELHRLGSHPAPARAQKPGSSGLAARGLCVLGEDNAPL
Turning to B1, the “Ca ion level-increasing activity (FLIPR, 40 s)” value came to 5.4 EC50/MS10 EC50.

Consider B2, for which the “Ca ion level-increasing activity (FLIPR, 40 s)” value came to 1.8 EC50/MS10 EC50.

B3: the “Ca ion level-increasing activity (FLIPR, 40 s)” value worked out at 5.5 EC50/MS10 EC50.

As to {Propanoyl(3-indol-3-yl)}-NSF[azaGly]L[Arg(Me)]F-NH2 (also: also named 1-(3-indolyl)propionyl cap, also called Compound No. 260) [des(1-3)-3-(3-Indolyl)propionyl-[AzaGly7,Arg(Me)9]MS10], the “Ca ion level-increasing activity (FLIPR, 40 s)” value came out at 4.3 EC50/MS10 EC50.

With YNWNSFGL[Arg(Me)]F-NH2 (also called Compound No. 82) [[Arg(Me)9]MS10], the “Ca ion level-increasing activity (FLIPR, 40 s)” value turned out to be 1 EC50/MS10 EC50.

For the molecule B4, the “Ca ion level-increasing activity (FLIPR, 40 s)” value turned out to be 5 EC50/MS10 EC50.

Consider Y[dN]WNSFGLRF-NH2 [[D-Asn2]MS10], for which the “Ca ion level-increasing activity (FLIPR, 40 s)” value came out at 2.7 EC50/MS10 EC50.

As for B5, the “Ca ion level-increasing activity (FLIPR, 40 s)” value is 6.4 EC50/MS10 EC50.

On to [dY]NWNSFGL[Arg(Me)]F-NH2 (also: bond 6-7 CONH replaced by NHCO (reversed)) [[6Ψ7,NHCO,D-Tyr1,Arg(Me)9]MS10], for which the “Ca ion level-increasing activity (FLIPR, 40 s)” value came out at 3.1 EC50/MS10 EC50.

Consider B6, for which the “Ca ion level-increasing activity (FLIPR, 40 s)” value turned out to be 4.5 EC50/MS10 EC50.

In the case of [dY]NWNSFGL[Arg(Me)]F-NH2 (also: bond 6-7 CONH replaced by CSNH (thioamide), also called Compound No. 296) [[6Ψ7,CSNH,D-Tyr1,Arg(Me)9]MS10], the “Ca ion level-increasing activity (FLIPR, 40 s)” value came to 5.2 EC50/MS10 EC50.

For the molecule [dY]NWNSFGL[Arg(Me)]F-NH2 (also: bond 6-7 CONH replaced by CH2NH, also called Compound No. 308) [[6Ψ7,CH2NH,D-Tyr1,Arg(Me)9]MS10], the “Ca ion level-increasing activity (FLIPR, 40 s)” value was found to be 2.6 EC50/MS10 EC50.

In a further assay the target is T1, human OT7T175 (metastin receptor). Kind of assay: competition with Cy-5 metastin (40-54) on hOT7T175-CHO cells, FMAT. Here is the method: hOT7T175-Expressed CHO cells were cultured in MEM-α medium (nucleic acid-free) containing 10% dialyzed serum. The medium was removed and the adhered cells were washed with PBS. Then, PBS containing 5 mM EDTA was added and the cells were scraped from a flask with a cell scraper.
To each well of a 96-Well Black Clear Bottom Microplate (Applied Biosystems, Inc.), 10 μL of assay buffer containing 1% dimethylsulfoxide was added to examine total binding, 10 μL of 10 μM non-labeled peptide (having the same amino acid sequence as that of labeled one) solution diluted with assay buffer to examine non-specific binding, and 10 μL of a test compound diluted with assay buffer to examine a binding inhibition activity of the test compound, and furthermore, 90 μL each of the cell suspension was dispensed to each well. […] Specific binding is calculated as non-specific binding subtracted from total binding. The binding inhibition activity of a test compound is shown by a ratio of the value obtained by subtracting a measured value in presence of a test compound from the total binding to the specific binding.
As to B1, the IC50 (as a rule, the midpoint of a concentration-inhibition curve) was 230 nM.

Molecule B2 registered a concentration for half-maximal inhibition (IC50) of 0.25 nM.

Take B3: the IC50 was 0.93 nM.

Consider {Propanoyl(3-indol-3-yl)}-NSF[azaGly]L[Arg(Me)]F-NH2 (also: also named 1-(3-indolyl)propionyl cap, also called Compound No. 260) [des(1-3)-3-(3-Indolyl)propionyl-[AzaGly7,Arg(Me)9]MS10], for which the IC50 is 320 nM.

YNWNSFGL[Arg(Me)]F-NH2 (also called Compound No. 82) [[Arg(Me)9]MS10]: the IC50 was 4.1 nM.

For the molecule B5, the IC50 was determined as 29 nM.

Regarding B6, the concentration for half-maximal inhibition (IC50) was found to be 550 nM.

Molecule [dY]NWNSFGL[Arg(Me)]F-NH2 (also: bond 6-7 CONH replaced by CSNH (thioamide), also called Compound No. 296) [[6Ψ7,CSNH,D-Tyr1,Arg(Me)9]MS10] came in with an IC50 of 14 nM.

With [dY]NWNSFGL[Arg(Me)]F-NH2 (also: bond 6-7 CONH replaced by CH2NH, also called Compound No. 308) [[6Ψ7,CH2NH,D-Tyr1,Arg(Me)9]MS10], the IC50 stood at 350 nM.

For the next assay the target is unchanged. Kind of assay: cell-based or functional assay. This is another data set of the same source.
Consider B1, for which the “Ca ion level-increasing activity (FLIPR)” value was 2 x Metastin (1-54).

Take B2: the “Ca ion level-increasing activity (FLIPR)” value was 5 x Metastin (1-54).

Turning to B3, the “Ca ion level-increasing activity (FLIPR)” value is 1 x Metastin (1-54).

Turning to {Propanoyl(3-indol-3-yl)}-NSF[azaGly]L[Arg(Me)]F-NH2 (also: also named 1-(3-indolyl)propionyl cap, also called Compound No. 260) [des(1-3)-3-(3-Indolyl)propionyl-[AzaGly7,Arg(Me)9]MS10], the “Ca ion level-increasing activity (FLIPR)” value is 5 x Metastin (1-54).

In the case of B4, the “Ca ion level-increasing activity (FLIPR)” value was 1 x Metastin (1-54).

Turning to B5, the “Ca ion level-increasing activity (FLIPR)” value was 5 x Metastin (1-54).

With [dY]NWNSFGL[Arg(Me)]F-NH2 (also: bond 6-7 CONH replaced by NHCO (reversed)) [[6Ψ7,NHCO,D-Tyr1,Arg(Me)9]MS10], the “Ca ion level-increasing activity (FLIPR)” value is 3 x Metastin (1-54).

On to B6, for which the “Ca ion level-increasing activity (FLIPR)” value is 1 x Metastin (1-54).

[dY]NWNSFGL[Arg(Me)]F-NH2 (also: bond 6-7 CONH replaced by CSNH (thioamide), also called Compound No. 296) [[6Ψ7,CSNH,D-Tyr1,Arg(Me)9]MS10]: the “Ca ion level-increasing activity (FLIPR)” value was 3 x Metastin (1-54).
